T1: CD122 (human, UniProt P14784 27-239)
T1 construct: also called IL-2Rβ; hIL-2 receptor
T1 sequence: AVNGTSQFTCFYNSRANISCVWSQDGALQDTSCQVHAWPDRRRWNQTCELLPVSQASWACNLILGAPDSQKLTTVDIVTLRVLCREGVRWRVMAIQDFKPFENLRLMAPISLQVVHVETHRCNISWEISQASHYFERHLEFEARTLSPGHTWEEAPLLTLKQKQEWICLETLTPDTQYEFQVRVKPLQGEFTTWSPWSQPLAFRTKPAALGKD

T2: AVITAG CD122/CD132 heterodimer (human, UniProt P14784 27-239; P31785 23-262)
T2 construct: also called IL-2Rβ/γ
T2 sequence 1: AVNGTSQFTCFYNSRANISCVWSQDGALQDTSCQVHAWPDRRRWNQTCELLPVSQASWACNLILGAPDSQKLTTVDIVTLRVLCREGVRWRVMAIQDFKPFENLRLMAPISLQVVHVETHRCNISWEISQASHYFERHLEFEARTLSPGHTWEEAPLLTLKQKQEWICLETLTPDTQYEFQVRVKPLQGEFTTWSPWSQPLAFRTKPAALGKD
T2 sequence 2: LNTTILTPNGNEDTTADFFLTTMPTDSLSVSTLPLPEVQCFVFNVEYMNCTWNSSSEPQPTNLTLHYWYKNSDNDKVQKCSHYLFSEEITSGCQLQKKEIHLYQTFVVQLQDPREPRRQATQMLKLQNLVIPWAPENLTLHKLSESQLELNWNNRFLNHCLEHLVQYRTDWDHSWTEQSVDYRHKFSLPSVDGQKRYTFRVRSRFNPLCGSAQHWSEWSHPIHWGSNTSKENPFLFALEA

T3: His-tagged IL-2Rα (CD25) protein (human, UniProt P01589 22-240)
T3 construct: also called Human IL-2Rα
T3 sequence: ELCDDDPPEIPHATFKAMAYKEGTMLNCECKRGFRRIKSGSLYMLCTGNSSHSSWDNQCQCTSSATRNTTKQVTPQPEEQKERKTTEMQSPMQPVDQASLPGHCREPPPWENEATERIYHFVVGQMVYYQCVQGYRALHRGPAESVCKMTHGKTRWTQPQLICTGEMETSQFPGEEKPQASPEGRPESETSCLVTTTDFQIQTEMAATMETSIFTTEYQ

T4: His-tagged & Twin Strep-tagged human IL-2Rβ & IL-2Rγ heterodimer protein (human, UniProt P14784 27-239; P31785 23-262)
T4 construct: also called Human IL-2Rβγ; human IL-2Rβγ (His)
T4 sequence 1: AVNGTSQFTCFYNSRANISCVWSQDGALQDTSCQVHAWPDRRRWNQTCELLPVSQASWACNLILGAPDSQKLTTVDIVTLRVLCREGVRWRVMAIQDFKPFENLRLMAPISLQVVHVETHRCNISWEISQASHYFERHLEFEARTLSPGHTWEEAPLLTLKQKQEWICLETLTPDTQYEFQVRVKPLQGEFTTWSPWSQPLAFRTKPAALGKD
T4 sequence 2: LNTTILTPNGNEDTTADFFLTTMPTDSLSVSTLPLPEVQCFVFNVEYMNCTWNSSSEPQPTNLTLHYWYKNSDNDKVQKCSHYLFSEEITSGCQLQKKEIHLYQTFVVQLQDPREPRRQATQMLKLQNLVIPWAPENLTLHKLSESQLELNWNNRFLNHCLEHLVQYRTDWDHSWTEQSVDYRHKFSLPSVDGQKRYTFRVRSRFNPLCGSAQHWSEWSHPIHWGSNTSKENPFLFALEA


What was measured:
CD122 = molecular target: T1, CD122; assay: BLI (OCTET RED96); receptor loaded on biosensor, IL-2 mutein in solution at 10 to 2,000 nM
Description: (§1) CD122 and AVITAG CD122/CD132 heterodimer were purchased from ACROBIOSYSTEMS, Inc. The protein samples were diluted in the OCTET® kinetic buffer. […] The association and dissociation sensorgram was fitted by global or local fitting using the OCTET® Data Analysis HT software.

[1] = molecular target: T2, AVITAG CD122/CD132 heterodimer; assay: as above
Description: as §1

His-tagged human PD-1 = molecular target: T5, His-tagged human PD-1 (human, UniProt Q15116 25-167, limits assumed); assay: BLI (OCTET RED96); fusion protein A1 captured on anti-human-Fc (AHC) biosensor, serially diluted His-tagged human PD-1 in solution
T5 construct: also called His-tagged human PD-1 protein
T5 sequence (Q15116 25-167 limits assumed): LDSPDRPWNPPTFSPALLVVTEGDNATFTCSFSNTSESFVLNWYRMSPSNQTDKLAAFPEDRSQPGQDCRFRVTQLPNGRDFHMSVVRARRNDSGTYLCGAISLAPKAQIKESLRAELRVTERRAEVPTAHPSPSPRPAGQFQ
Source text: (§2) Anti-PD-1/IL-2 fusion protein A1 was made by co-expression of SEQ ID NOs: 160 and 161 in CHO cells. OCTET® RED96 was used to study the interaction between anti-PD-1/IL-2 fusion protein A1 and human PD-1 or IL-2 receptors. For the binding study of the human PD-1, anti-human-Fc (AHC) biosensors were used to capture anti-PD-1/IL-2 fusion protein A1. The coated biosensors were associated with serially diluted His-tagged human PD-1 protein at predetermined concentrations. For the binding study of human IL-2 receptors, anti-penta-HIS (HIS1K) biosensors were used to capture human IL-2Rα or human IL-2Rβγ (His) proteins. The coated biosensors were associated with serially diluted anti-PD-1/IL-2 fusion protein A1 at predetermined concentrations.

[2] = molecular target: T3, His-tagged IL-2Rα (CD25) protein; assay: BLI (OCTET RED96); His-tagged receptor captured on anti-penta-HIS (HIS1K) biosensor, serially diluted fusion protein A1 in solution
Source text: as §2

[3] = molecular target: T4, His-tagged & Twin Strep-tagged human …; assay: BLI (OCTET RED96); His-tagged receptor heterodimer captured on anti-penta-HIS (HIS1K) biosensor, serially diluted fusion protein A1 in solution
Source text: as §2

Row | Kd (CD122) | Kd [1] | Binder | also measured
1 | 550 nM | 6.8 nM | hIL-2 Mutein (T3A, F42A, Y45A, L72G, C125S) (ligand, no fusion partner is stated) APASSSTKKTQLQLEHLLLDLQMILNGINNYKNPKLTRMLTAKFAMPKKATELKHLQCLEEELKPLEEVLNGAQSKNFHLRPRDLISNINVIVLELKGSETTFMCEYADETATIVEFLNRWITFSQSIISTLT | –
2 | – | 1 nM | hIL-2 Mutein (T3A, R38E, F42A, K76E, C125S) (ligand, no fusion partner is stated) APASSSTKKTQLQLEHLLLDLQMILNGINNYKNPKLTEMLTAKFYMPKKATELKHLQCLEEELKPLEEVLNLAQSENFHLRPRDLISNINVIVLELKGSETTFMCEYADETATIVEFLNRWITFSQSIISTLT | –
3 | – | – | Anti-PD-1/IL-2 fusion protein A1 (Fc fusion, The two chains form a knobs-into-holes heterodimer) chain 1: QVQLLESGGGLVKPGGSLRLSCAASGRTYAMGWFRRAPGKESEFVAEIRWSSTFTDYADSVKGRFTISRDNAENSAYLQMNSLRAEDTAVYHCAAQTSQRGTLYDSYGQGTQVTVSSESKYGPPCPPCPAPEFLGGPSVFLFPPKPKDTLMISRTPEVTCVVVDVSQEDPEVQFNWYVDGVEVHNAKTKPREEQFNSTYRVVSVLTVLHQDWLNGKEYKCKVSNKGLPSSIEKTISKAKGQPREPQVCTLPPSQEEMTKNQVSLSCAVKGFYPSDIAVEWESNGQPENNYKTTPPVLDSDGSFFLVSRLTVDKSRWQEGNVFSCSVMHEALHNHYTQKSLSLSLGAGGGGSGGGGSGGGGSAPASSSTKKTQLQLEHLSLDLQMILNGIQSMEIDATTFKFYMPKKATELKHLQCLEEELKPLEEVLNLAQSKNFHLRPRDLISNINVIVLELKGSETTFMCEYADETATIVEFLNRWITFSESIISTLT chain 2: QVQLLESGGGLVKPGGSLRLSCAASGRTYAMGWFRRAPGKESEFVAEIRWSSTFTDYADSVKGRFTISRDNAENSAYLQMNSLRAEDTAVYHCAAQTSQRGTLYDSYGQGTQVTVSSESKYGPPCPPCPAPEFLGGPSVFLFPPKPKDTLMISRTPEVTCVVVDVSQEDPEVQFNWYVDGVEVHNAKTKPREEQFNSTYRVVSVLTVLHQDWLNGKEYKCKVSNKGLPSSIEKTISKAKGQPREPQVYTLPPCQEEMTKNQVSLWCLVKGFYPSDIAVEWESNGQPENNYKTTPPVLDSDGSFFLYSRLTVDKSRWQEGNVFSCSVMHEALHNHYTQKSLSLSLGK | Kd (His-tagged human PD-1): 5 nM; binding result [2]: no binding; Kd [3]: 12 nM
4 | 104 nM | 11 nM | IL-2-IL-15 Chimera 2 (T3A, C125S) (ligand, hIL-2 with N29-L40 replaced by an IL-15 hinge fragment-containing peptide; no fusion partner is stated) APASSSTKKTQLQLEHLLLDLQMILNGIQSMEIDATTFKFYMPKKATELKHLQCLEEELKPLEEVLNLAQSKNFHLRPRDLISNINVIVLELKGSETTFMCEYADETATIVEFLNRWITFSQSIISTLT | –
5 | – | 12 nM | IL-2-IL-15 Chimera 44 (T3A, L18C) (ligand, no fusion partner is stated) APASSSTKKTQLQLEHLCLDLQMILNGIQSMEIDATTFKFYMPKKATELKHLQCLEEELKPLEEVLNLAQSKNFHLRPRDLISNINVIVLELKGSETTFMCEYADETATIVEFLNRWITFCQSIISTLT | –
6 | – | 322 nM | IL-2-IL-15 Chimera 69 (T3A, L18S, C125S, Q126E) (ligand, no fusion partner is stated) APASSSTKKTQLQLEHLSLDLQMILNGIQSMEIDATTFKFYMPKKATELKHLQCLEEELKPLEEVLNLAQSKNFHLRPRDLISNINVIVLELKGSETTFMCEYADETATIVEFLNRWITFSESIISTLT | –
7 | – | 219 nM | IL-2-IL-15 Chimera 46 (T3A, C125S, Q126E) (ligand, no fusion partner is stated) APASSSTKKTQLQLEHLLLDLQMILNGIQSMEIDATTFKFYMPKKATELKHLQCLEEELKPLEEVLNLAQSKNFHLRPRDLISNINVIVLELKGSETTFMCEYADETATIVEFLNRWITFSESIISTLT | –
8 | 650 nM | 30 nM | IL-2-IL-15 Chimera 54 (T3A, C125S, Q126T) (ligand, no fusion partner is stated) APASSSTKKTQLQLEHLLLDLQMILNGIQSMEIDATTFKFYMPKKATELKHLQCLEEELKPLEEVLNLAQSKNFHLRPRDLISNINVIVLELKGSETTFMCEYADETATIVEFLNRWITFSTSIISTLT | –
9 | 808 nM | 12 nM | IL-2-IL-15 Chimera 56 (T3A, C125S, S130R) (ligand, no fusion partner is stated) APASSSTKKTQLQLEHLLLDLQMILNGIQSMEIDATTFKFYMPKKATELKHLQCLEEELKPLEEVLNLAQSKNFHLRPRDLISNINVIVLELKGSETTFMCEYADETATIVEFLNRWITFSQSIIRTLT | –
10 | 466 nM | 32 nM | IL-2-IL-15 Chimera 68 (T3A, C125S, Q126T, S130R) (ligand, no fusion partner is stated) APASSSTKKTQLQLEHLLLDLQMILNGIQSMEIDATTFKFYMPKKATELKHLQCLEEELKPLEEVLNLAQSKNFHLRPRDLISNINVIVLELKGSETTFMCEYADETATIVEFLNRWITFSTSIIRTLT | –
11 | 188 nM | 229 nM | IL-2-IL-15 Chimera 58 (T3A, L18C, Q126E) (ligand, no fusion partner is stated) APASSSTKKTQLQLEHLCLDLQMILNGIQSMEIDATTFKFYMPKKATELKHLQCLEEELKPLEEVLNLAQSKNFHLRPRDLISNINVIVLELKGSETTFMCEYADETATIVEFLNRWITFCESIISTLT | –
12 | – | 53 nM | IL-2-IL-15 Chimera 42 (E15K, N88A, C125S) (ligand, no fusion partner is stated) APTSSSTKKTQLQLKHLLLDLQMILNGIQSMEIDATTFKFYMPKKATELKHLQCLEEELKPLEEVLNLAQSKNFHLRPRDLISAINVIVLELKGSETTFMCEYADETATIVEFLNRWITFSQSIISTLT | –
13 | – | 3.5 nM | IL-2-IL-15 Chimera 29 (I92A, C125S) (ligand, no fusion partner is stated) APTSSSTKKTQLQLEHLLLDLQMILNGIQSMEIDATTFKFYMPKKATELKHLQCLEEELKPLEEVLNLAQSKNFHLRPRDLISNINVAVLELKGSETTFMCEYADETATIVEFLNRWITFSQSIISTLT | –
14 | – | 382 nM | IL-2-IL-15 Chimera 64 (T3A, L18C, Q126S) (ligand, no fusion partner is stated) APASSSTKKTQLQLEHLCLDLQMILNGIQSMEIDATTFKFYMPKKATELKHLQCLEEELKPLEEVLNLAQSKNFHLRPRDLISNINVIVLELKGSETTFMCEYADETATIVEFLNRWITFCSSIISTLT | –

From US20260226126A1 (ANWITA BIOSCIENCES, published 2026)
